# Results from patent US20190017043A1.
# Target: MBP-Z-N6K (Z-domain protein with Asn6 mutated to Lys, fused with maltose binding protein) [MBP: P0AEX9]
# Assay: covalent protein-protein cross-linking after sodium periodate treatment, 4 hours, SDS-PAGE
substance,measurement,value
AFB-D36DOPA (ZSPA affibody with L-DOPA genetically incorporated at position 36) (designed binder),cross-linked products,70 to 75%
